Source: article PMC10312692 (bioRxiv, 2023)

Target: the molecule itself
Assay: SEC

Row | Protein | binding result
1 | DISC1 598-854 C680S/C682S/C684S/C698S/C762S/C782S/C844S (domain or fragment) GNHFFTAKDLTEEIRSLTSEREGLEGLLSKLLVLSSRNVKKLGSVKEDYNRLRREVEHQETAYETSVKENTMKYMETLKNKLSSSKSPLLGKVWEADLEASRLLIQSLQLQEARGSLSVEDERQMDDLEGAAPPIPPRLHSEDKRKTPLKVLEEFKTHLIPSLHSAGGEQKEESYILSAELGEKSEDIGKKLLYLEDQLHTAIHSHDEDLIQSLRRELQMVKETLQAMILQLQPAKEAGEREAAASSMTAGVHEAQA | binds
2 | DISC1 598-854 C682S/C684S/C698S/C762S/C782S/C844S (domain or fragment) GNHFFTAKDLTEEIRSLTSEREGLEGLLSKLLVLSSRNVKKLGSVKEDYNRLRREVEHQETAYETSVKENTMKYMETLKNKLCSSKSPLLGKVWEADLEASRLLIQSLQLQEARGSLSVEDERQMDDLEGAAPPIPPRLHSEDKRKTPLKVLEEFKTHLIPSLHSAGGEQKEESYILSAELGEKSEDIGKKLLYLEDQLHTAIHSHDEDLIQSLRRELQMVKETLQAMILQLQPAKEAGEREAAASSMTAGVHEAQA | binds
3 | DISC1 598-854 C698S/C762S/C782S/C844S (domain or fragment) GNHFFTAKDLTEEIRSLTSEREGLEGLLSKLLVLSSRNVKKLGSVKEDYNRLRREVEHQETAYETSVKENTMKYMETLKNKLCSCKCPLLGKVWEADLEASRLLIQSLQLQEARGSLSVEDERQMDDLEGAAPPIPPRLHSEDKRKTPLKVLEEFKTHLIPSLHSAGGEQKEESYILSAELGEKSEDIGKKLLYLEDQLHTAIHSHDEDLIQSLRRELQMVKETLQAMILQLQPAKEAGEREAAASSMTAGVHEAQA | binds
4 | DISC1 598-854 C680S/C698S/C762S/C782S/C844S (domain or fragment) GNHFFTAKDLTEEIRSLTSEREGLEGLLSKLLVLSSRNVKKLGSVKEDYNRLRREVEHQETAYETSVKENTMKYMETLKNKLSSCKCPLLGKVWEADLEASRLLIQSLQLQEARGSLSVEDERQMDDLEGAAPPIPPRLHSEDKRKTPLKVLEEFKTHLIPSLHSAGGEQKEESYILSAELGEKSEDIGKKLLYLEDQLHTAIHSHDEDLIQSLRRELQMVKETLQAMILQLQPAKEAGEREAAASSMTAGVHEAQA | binds
5 | DISC1 598-854 C680S/C682S/C698S/C762S/C782S/C844S (domain or fragment) GNHFFTAKDLTEEIRSLTSEREGLEGLLSKLLVLSSRNVKKLGSVKEDYNRLRREVEHQETAYETSVKENTMKYMETLKNKLSSSKCPLLGKVWEADLEASRLLIQSLQLQEARGSLSVEDERQMDDLEGAAPPIPPRLHSEDKRKTPLKVLEEFKTHLIPSLHSAGGEQKEESYILSAELGEKSEDIGKKLLYLEDQLHTAIHSHDEDLIQSLRRELQMVKETLQAMILQLQPAKEAGEREAAASSMTAGVHEAQA | binds
6 | DISC1 598-854 C682S/C698S/C762S/C782S/C844S (domain or fragment) GNHFFTAKDLTEEIRSLTSEREGLEGLLSKLLVLSSRNVKKLGSVKEDYNRLRREVEHQETAYETSVKENTMKYMETLKNKLCSSKCPLLGKVWEADLEASRLLIQSLQLQEARGSLSVEDERQMDDLEGAAPPIPPRLHSEDKRKTPLKVLEEFKTHLIPSLHSAGGEQKEESYILSAELGEKSEDIGKKLLYLEDQLHTAIHSHDEDLIQSLRRELQMVKETLQAMILQLQPAKEAGEREAAASSMTAGVHEAQA | binds
7 | DISC1 598-854 C680S/C684S/C698S/C762S/C782S/C844S (domain or fragment) GNHFFTAKDLTEEIRSLTSEREGLEGLLSKLLVLSSRNVKKLGSVKEDYNRLRREVEHQETAYETSVKENTMKYMETLKNKLSSCKSPLLGKVWEADLEASRLLIQSLQLQEARGSLSVEDERQMDDLEGAAPPIPPRLHSEDKRKTPLKVLEEFKTHLIPSLHSAGGEQKEESYILSAELGEKSEDIGKKLLYLEDQLHTAIHSHDEDLIQSLRRELQMVKETLQAMILQLQPAKEAGEREAAASSMTAGVHEAQA | binds
8 | DISC1 598-854 C684S/C698S/C762S/C782S/C844S (domain or fragment) GNHFFTAKDLTEEIRSLTSEREGLEGLLSKLLVLSSRNVKKLGSVKEDYNRLRREVEHQETAYETSVKENTMKYMETLKNKLCSCKSPLLGKVWEADLEASRLLIQSLQLQEARGSLSVEDERQMDDLEGAAPPIPPRLHSEDKRKTPLKVLEEFKTHLIPSLHSAGGEQKEESYILSAELGEKSEDIGKKLLYLEDQLHTAIHSHDEDLIQSLRRELQMVKETLQAMILQLQPAKEAGEREAAASSMTAGVHEAQA | binds
